According to patent US20020142982:

Key:
[1] = target: T236A EDG-1 mutant receptor (UniProt P21453)
[2] = target: R231K EDG-1 mutant receptor (UniProt P21453)
[3] = target: Flag-tagged wild-type EDG-1 receptor (UniProt P21453)
[4] = target: R233K EDG-1 mutant receptor (UniProt P21453)
[5] = test system: GST-i3 polypeptide from EDG-5 [GST: P08515]
[6] = target: GST-i3 polypeptide from EDG-3 (UniProt Q99500)
[7] = target: glutathione S-transferase (GST)-EDG-1-i3 (UniProt P21453)
[8] = target: GST-i3T236V polypeptide (UniProt P21453)
Sequence of GST-i3T236V polypeptide (P21453 whole entry T236V, looked up, tested part not stated): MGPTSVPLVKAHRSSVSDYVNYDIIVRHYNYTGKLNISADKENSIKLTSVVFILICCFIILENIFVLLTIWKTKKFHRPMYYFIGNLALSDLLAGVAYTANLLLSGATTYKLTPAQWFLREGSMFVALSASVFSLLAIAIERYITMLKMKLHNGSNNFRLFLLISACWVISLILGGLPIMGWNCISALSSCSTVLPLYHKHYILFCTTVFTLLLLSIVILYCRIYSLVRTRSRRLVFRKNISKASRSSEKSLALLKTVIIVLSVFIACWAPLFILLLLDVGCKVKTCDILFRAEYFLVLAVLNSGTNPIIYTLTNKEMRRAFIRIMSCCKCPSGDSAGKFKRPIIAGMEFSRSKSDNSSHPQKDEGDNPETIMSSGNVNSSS

Sequence of T236A EDG-1 mutant receptor (P21453 whole entry T236A): as the sequence (P21453 whole entry T236V, looked up, tested part not stated) above, with V236A counted along it
Sequence of R233K EDG-1 mutant receptor (P21453 whole entry R233K): as the sequence (P21453 whole entry T236V, looked up, tested part not stated) above, with R233K, V236T counted along it
Sequence of R231K EDG-1 mutant receptor (P21453 whole entry R231K): as the sequence (P21453 whole entry T236V, looked up, tested part not stated) above, with R231K, V236T counted along it
Sequence of Flag-tagged wild-type EDG-1 receptor (P21453 whole entry): as the sequence (P21453 whole entry T236V, looked up, tested part not stated) above, with V236T counted along it
Sequence of GST-i3 polypeptide from EDG-3 (Q99500 217-243): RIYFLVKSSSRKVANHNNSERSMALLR
Sequence of GST-i3 polypeptide from EDG-5 [GST: P08515] (P08515 whole entry, looked up): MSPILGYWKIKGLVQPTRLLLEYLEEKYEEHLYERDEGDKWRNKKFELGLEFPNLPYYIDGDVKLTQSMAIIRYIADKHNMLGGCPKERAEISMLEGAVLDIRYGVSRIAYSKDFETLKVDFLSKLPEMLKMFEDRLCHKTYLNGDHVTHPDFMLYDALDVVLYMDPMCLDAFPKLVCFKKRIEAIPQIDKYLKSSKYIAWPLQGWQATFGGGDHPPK
Sequence of glutathione S-transferase (GST)-EDG-1-i3 (P21453 other isoform, or with tags, fused parts or gaps): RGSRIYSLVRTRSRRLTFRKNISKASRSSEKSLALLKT

Substance	in vitro phosphorylation of immunoprecipitated receptor [1]	in vitro phosphorylation of immunoprecipitated receptor [2]	in vitro phosphorylation of immunoprecipitated receptor [3]	in vitro phosphorylation of immunoprecipitated receptor [4]	in vitro phosphorylation (32P incorporation, SDS-PAGE) [5]	in vitro phosphorylation (32P incorporation, SDS-PAGE) [6]	in vitro phosphorylation (32P incorporation, SDS-PAGE) [7]	in vitro phosphorylation (32P-phosphate incorporation) [8]
p90^RSK (active kinase)	in vitro phosphorylation with p90^RSK was similar in wild-type as well as in the three mutants	in vitro phosphorylation with p90^RSK was similar in wild-type as well as in the three mutants	in vitro phosphorylation with p90^RSK was similar in wild-type as well as in the three mutants	in vitro phosphorylation with p90^RSK was similar in wild-type as well as in the three mutants				
recombinant, active Akt	All three mutants were phosphorylated very poorly by the active Akt kinase in an in vitro phosphorylation reaction when compared to the wild-type EDG-1	All three mutants were phosphorylated very poorly by the active Akt kinase in an in vitro phosphorylation reaction when compared to the wild-type EDG-1	All three mutants were phosphorylated very poorly by the active Akt kinase in an in vitro phosphorylation reaction when compared to the wild-type EDG-1	All three mutants were phosphorylated very poorly by the active Akt kinase in an in vitro phosphorylation reaction when compared to the wild-type EDG-1	only the GST-EDG-1-i3 was phosphorylated by Akt	only the GST-EDG-1-i3 was phosphorylated by Akt	only the GST-EDG-1-i3 was phosphorylated by Akt	^32P-phosphate incorporation into the GST-i3T236V polypeptide was significantly reduced upon incubation with Akt
